Data set [1] relates to HeLa Kyoto. Description: solubility change mitosis vs G1/S (difference of NP-40 vs SDS log2 ratios) (log2 ratio difference); higher = more soluble in mitosis.
In data set [2] the test system is HeLa Kyoto. Description: solubility in G1/S (NP-40 vs SDS abundance) (log2 ratio); higher = more soluble. Particulars: cell cycle stage: G1/S.
In data set [3] the test system is HeLa Kyoto. Description: thermal stability score vs G1/S (z-score of summed log2 fold changes over temperatures); higher = more thermally stable than in G1/S.
Data set [4] concerns HeLa Kyoto. Description: melting temperature (median over replicates), in situ; higher = more thermally stable.
Setting [5] is: cell cycle stage: early G1 (4.5 h after nocodazole release).
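Throughout, for melting temperature (median over replicates), in situ: HeLa Kyoto cells synchronized by double thymidine or nocodazole block, proteins quantified by TMT10plex mass spectrometry, three independent biological replicates.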
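Throughout, for solubility change mitosis vs G1/S (difference of NP-40 vs SDS log2 ratios): synchronized HeLa Kyoto cells (double thymidine block for G1/S, nocodazole release for mitosis), protein amounts in NP-40 versus SDS lysates quantified by mass spectrometry, three biological replicates.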
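Throughout, for solubility in G1/S (NP-40 vs SDS abundance): HeLa Kyoto cells arrested at G1/S by double thymidine block, proteins quantified by TMT10plex mass spectrometry in mild NP-40 versus SDS extracts, three biological replicates.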
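Throughout, for thermal stability score vs G1/S (z-score of summed log2 fold changes over temperatures): synchronized HeLa Kyoto cells, proteins quantified by TMT10plex mass spectrometry, three biological replicates, mitosis taken 0.5 h after nocodazole release, G1/S directly after double thymidine block.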

Chain of HSPA9 (chain, as listed by the source): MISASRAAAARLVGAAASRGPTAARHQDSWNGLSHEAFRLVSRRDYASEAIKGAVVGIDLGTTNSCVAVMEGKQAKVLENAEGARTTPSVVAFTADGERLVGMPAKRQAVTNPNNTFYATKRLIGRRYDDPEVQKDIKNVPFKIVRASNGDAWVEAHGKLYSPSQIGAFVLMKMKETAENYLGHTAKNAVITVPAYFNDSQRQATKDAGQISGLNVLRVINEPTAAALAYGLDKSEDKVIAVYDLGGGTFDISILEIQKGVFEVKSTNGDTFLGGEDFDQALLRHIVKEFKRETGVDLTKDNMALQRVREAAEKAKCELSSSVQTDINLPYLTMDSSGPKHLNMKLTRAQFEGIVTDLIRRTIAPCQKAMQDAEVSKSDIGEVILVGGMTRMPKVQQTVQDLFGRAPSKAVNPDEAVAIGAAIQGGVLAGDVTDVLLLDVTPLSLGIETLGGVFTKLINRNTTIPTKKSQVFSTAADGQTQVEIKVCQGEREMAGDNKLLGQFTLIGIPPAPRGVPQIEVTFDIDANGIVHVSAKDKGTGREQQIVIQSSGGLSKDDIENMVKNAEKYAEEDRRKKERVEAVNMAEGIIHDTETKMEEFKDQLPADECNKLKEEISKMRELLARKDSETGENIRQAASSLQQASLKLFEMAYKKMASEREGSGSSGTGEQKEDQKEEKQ

For HSPA9, in data set [1], the “solubility change mitosis (log2)” value was -0.0046. The “solubility in G1/S (log2)” value in data set [2] turned out to be 0.447. Also, the thermal stability score is 2.31 in data set [3] (setting [5]) and -0.387 in data set [3] (cell cycle stage: mitosis). Besides, the melting temperature in data set [4] (cell cycle stage: G1/S) is 53.1 °C; in data set [4] (cell cycle stage: mitosis), 52.8 °C.
In the case of “MDPGDDWLVESLRLYQDFYAFDLSGATRVLEWIDDKGVFVAGYESLKKNEILHLKLPLRLSVKENKGLFPERDFKVRHGGFSDRSIFDLKHVPHTRLLVTSGLPGCYLQVWQVAEDSDVIKAVSTIAVHEKEESLWPRVAVFSTLAPGVLHGARLRSLQVVDLESRKTTYTSDVSDSEELSSLQVLDADTFAFCCASGRLGLVDTRQKWAPLENRSPGPGSGGERWCAEVGSWGQGPGPSIASLGSDGRLCLLDPRDLCHPVSSVQCPVSVPSPDPELLRVTWAPGLKNCLAISGFDGTVQVYDATSWDGTRSQDGTRSQVEPLFTHRGHIFLDGNGMDPAPLVTTHTWHPCRPRTLLSATNDASLHVWDWVDLCAPR [WDR73]”, in data set [1], the “solubility change mitosis (log2)” value was -0.0847. Also, the “solubility in G1/S (log2)” value in data set [2] is -0.0335. Besides, the thermal stability score in data set [3] (setting [5]) amounted to 0.072; in data set [3] (cell cycle stage: mitosis), 0.551. In addition, the values for the melting temperature in data set [4] (cell cycle stage: G1/S) and in data set [4] (cell cycle stage: mitosis) were 54.8 °C and 54 °C, respectively.
As for “MESYDIIANQPVVIDNGSGVIKAGFAGDQIPKYCFPNYVGRPKHMRVMAGALEGDLFIGPKAEEHRGLLTIRYPMEHGVVRDWNDMERIWQYVYSKDQLQTFSEEHPVLLTEAPLNPSKNREKAAEVFFETFNVPALFISMQAVLSLYATGRTTGVVLDSGDGVTHAVPIYEGFAMPHSIMRVDIAGRDVSRYLRLLLRKEGVDFHTSAEFEVVRTIKERACYLSINPQKDEALETEKVQYTLPDGSTLDVGPARFRAPELLFQPDLVGDESEGLHEVVAFAIHKSDMDLRRTLFANIVLSGGSTLFKGFGDRLLSEVKKLAPKDIKIKISAPQERLYSTWIGGSILASLDTFKKMWVSKKEYEEDGSRAIHRKTF [ACTR1B]”, the “solubility change mitosis (log2)” value in data set [1] is -0.178. For the same substance, in data set [2], the “solubility in G1/S (log2)” value was -0.021. The results for the thermal stability score in data set [3] (setting [5]) and in data set [3] (cell cycle stage: mitosis) were -0.612 and -1.12, respectively. In addition, the melting temperature in data set [4] (cell cycle stage: G1/S) was 54 °C; in data set [4] (cell cycle stage: mitosis), 53.1 °C.
In the case of “MRPLPGALGVAAAAALWLLLLLLPRTRADEHEHTYQDKEEVVLWMNTVGPYHNRQETYKYFSLPFCVGSKKSISHYHETLGEALQGVELEFSGLDIKFKDDVMPATYCEIDLDKEKRDAFVYAIKNHYWYQMYIDDLPIWGIVGEADENGEDYYLWTYKKLEIGFNGNRIVDVNLTSEGKVKLVPNTKIQMSYSVKWKKSDVKFEDRFDKYLDPSFFQHRIHWFSIFNSFMMVIFLVGLVSMILMRTLRKDYARYSKEEEMDDMDRDLGDEYGWKQVHGDVFRPSSHPLIFSSLIGSGCQIFAVSLIVIIVAMIEDLYTERGSMLSTAIFVYAATSPVNGYFGGSLYARQGGRRWIKQMFIGAFLIPAMVCGTAFFINFIAIYYHASRAIPFGTMVAVCCICFFVILPLNLVGTILGRNLSGQPNFPCRVNAVPRPIPEKKWFMEPAVIVCLGGILPFGSIFIEMYFIFTSFWAYKIYYVYGFMMLVLVILCIVTVCVTIVCTYFLLNAEDYRWQWTSFLSAASTAIYVYMYSFYYYFFKTKMYGLFQTSFYFGYMAVFSTALGIMCGAIGYMGTSAFVRKIYTNVKID [TM9SF3]”, in data set [1], the “solubility change mitosis (log2)” value was -0.173. The “solubility in G1/S (log2)” value in data set [2] was -0.181. For the same substance, the results for the thermal stability score in data set [3] (setting [5]) and in data set [3] (cell cycle stage: mitosis) were 2.92 and 5.14, respectively. Besides, the melting temperature in data set [4] (cell cycle stage: G1/S) turned out to be 53.5 °C; in data set [4] (cell cycle stage: mitosis), 53.4 °C.
“MAAQKINEGLEHLAKAEKYLKTGFLKWKPDYDSAASEYGKAAVAFKNAKQFEQAKDACLREAVAHENNRALFHAAKAYEQAGMMLKEMQKLPEAVQLIEKASMMYLENGTPDTAAMALERAGKLIENVDPEKAVQLYQQTANVFENEERLRQAVELLGKASRLLVRGRRFDEAALSIQKEKNIYKEIENYPTCYKKTIAQVLVHLHRNDYVAAERCVRESYSIPGFNGSEDCAALEQLLEGYDQQDQDQVSDVCNSPLFKYMDNDYAKLGLSLVVPGGGIKKKSPATPQAKPDGVTATAADEEEDEYSGGLC [NAPG]”: the “solubility change mitosis (log2)” value in data set [1] is 0.178. In addition, the “solubility in G1/S (log2)” value in data set [2] was 0.528. The thermal stability score in data set [3] (setting [5]) was -0.512; in data set [3] (cell cycle stage: mitosis) it was 0.117. The melting temperature in data set [4] (cell cycle stage: G1/S) stood at 49.6 °C; in data set [4] (cell cycle stage: mitosis), 49.9 °C.
As to “MKFRAKIVDGACLNHFTRISNMIAKLAKTCTLRISPDKLNFILCDKLANGGVSMWCELEQENFFNEFQMEGVSAENNEIYLELTSENLSRALKTAQNARALKIKLTNKHFPCLTVSVELLSMSSSSRIVTHDIPIKVIPRKLWKDLQEPVVPDPDVSIYLPVLKTMKSVVEKMKNISNHLVIEANLDGELNLKIETELVCVTTHFKDLGNPPLASESTHEDRNVEHMAEVHIDIRKLLQFLAGQQVNPTKALCNIVNNKMVHFDLLHEDVSLQYFIPALS [HUS1]”, in data set [1], the “solubility change mitosis (log2)” value is -0.083. In addition, the “solubility in G1/S (log2)” value in data set [2] is 0.0659. Also, the thermal stability score in data set [3] (setting [5]) was found to be 1.48; in data set [3] (cell cycle stage: mitosis), 1.19. Also, the melting temperature in data set [4] (cell cycle stage: G1/S) worked out at 51.8 °C; in data set [4] (cell cycle stage: mitosis) it was 51.9 °C.
On to NUP98, for which the “solubility change mitosis (log2)” value in data set [1] was 0.26. In data set [2], the “solubility in G1/S (log2)” value was -0.162. The thermal stability score in data set [3] (setting [5]) is -1.52; in data set [3] (cell cycle stage: mitosis), -1.57. The melting temperature came out at 48.4 °C in data set [4] (cell cycle stage: G1/S) and 48.6 °C in data set [4] (cell cycle stage: mitosis).
Regarding SRGAP1, in data set [1], the “solubility change mitosis (log2)” value was -0.1. In data set [2], the “solubility in G1/S (log2)” value was 0.2. Further, the thermal stability score in data set [3] (setting [5]) came to 0.466; in data set [3] (cell cycle stage: mitosis), 0.773. Further, the results for the melting temperature in data set [4] (cell cycle stage: G1/S) and in data set [4] (cell cycle stage: mitosis) were 50.5 °C and 51.2 °C, respectively.

The record behind these values is the supplement of paper PMC5998384.
